Experimental data from patent US20140072613A1, “Compositions and Methods for Treating Cutaneous Scarring” (priority 2012, published 2014).

What was measured:
Assay in all cases: biochemical
Format in all cases: biochemical
266 human kinases [1] = molecular target: 266 human kinases (Homo sapiens, UniProt P10721, V560G); conditions: cKit(V560G)(h); 100 μM
Method in brief: (§1)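 Radiometric filter-binding format: a positively charged substrate takes up radiolabelled phosphate from ATP unless the kinase is inhibited, then is captured on a negatively charged filter membrane. Counts from scintillation are expressed relative to a 100% activity control.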

266 human kinases [2] = molecular target: T1, 266 human kinases (Homo sapiens, UniProt O15111); conditions: IKKα(h); 100 μM
T1 sequence (O15111 1-745): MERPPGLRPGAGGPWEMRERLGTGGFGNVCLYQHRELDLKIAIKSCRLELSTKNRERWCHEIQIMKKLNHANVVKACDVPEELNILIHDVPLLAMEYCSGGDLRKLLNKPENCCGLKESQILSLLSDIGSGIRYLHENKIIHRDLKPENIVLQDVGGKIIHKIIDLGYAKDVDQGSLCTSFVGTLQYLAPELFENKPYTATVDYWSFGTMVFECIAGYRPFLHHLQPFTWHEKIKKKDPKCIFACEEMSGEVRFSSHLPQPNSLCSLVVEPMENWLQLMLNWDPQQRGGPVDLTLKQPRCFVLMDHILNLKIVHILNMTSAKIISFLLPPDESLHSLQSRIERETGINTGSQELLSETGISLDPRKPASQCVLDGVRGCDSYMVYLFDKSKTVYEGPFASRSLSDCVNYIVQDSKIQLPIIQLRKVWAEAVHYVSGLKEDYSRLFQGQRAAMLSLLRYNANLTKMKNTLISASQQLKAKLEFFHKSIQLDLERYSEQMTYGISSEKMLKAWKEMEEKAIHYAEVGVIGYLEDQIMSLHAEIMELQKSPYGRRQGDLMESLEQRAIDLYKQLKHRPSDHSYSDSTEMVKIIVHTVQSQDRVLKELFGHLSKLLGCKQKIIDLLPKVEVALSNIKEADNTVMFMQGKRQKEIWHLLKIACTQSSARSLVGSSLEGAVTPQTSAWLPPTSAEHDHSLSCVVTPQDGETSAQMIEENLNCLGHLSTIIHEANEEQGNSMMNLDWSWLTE
Method in brief: as §1

266 human kinases [3] = molecular target: 266 human kinases (Homo sapiens, UniProt P10721, D816H); conditions: cKit(D816H)(h); 100 μM
Method in brief: as §1

266 human kinases [4] = molecular target: T2, 266 human kinases (Homo sapiens, UniProt P21709); conditions: EphA1(h); 100 μM
T2 sequence (P21709 26-976): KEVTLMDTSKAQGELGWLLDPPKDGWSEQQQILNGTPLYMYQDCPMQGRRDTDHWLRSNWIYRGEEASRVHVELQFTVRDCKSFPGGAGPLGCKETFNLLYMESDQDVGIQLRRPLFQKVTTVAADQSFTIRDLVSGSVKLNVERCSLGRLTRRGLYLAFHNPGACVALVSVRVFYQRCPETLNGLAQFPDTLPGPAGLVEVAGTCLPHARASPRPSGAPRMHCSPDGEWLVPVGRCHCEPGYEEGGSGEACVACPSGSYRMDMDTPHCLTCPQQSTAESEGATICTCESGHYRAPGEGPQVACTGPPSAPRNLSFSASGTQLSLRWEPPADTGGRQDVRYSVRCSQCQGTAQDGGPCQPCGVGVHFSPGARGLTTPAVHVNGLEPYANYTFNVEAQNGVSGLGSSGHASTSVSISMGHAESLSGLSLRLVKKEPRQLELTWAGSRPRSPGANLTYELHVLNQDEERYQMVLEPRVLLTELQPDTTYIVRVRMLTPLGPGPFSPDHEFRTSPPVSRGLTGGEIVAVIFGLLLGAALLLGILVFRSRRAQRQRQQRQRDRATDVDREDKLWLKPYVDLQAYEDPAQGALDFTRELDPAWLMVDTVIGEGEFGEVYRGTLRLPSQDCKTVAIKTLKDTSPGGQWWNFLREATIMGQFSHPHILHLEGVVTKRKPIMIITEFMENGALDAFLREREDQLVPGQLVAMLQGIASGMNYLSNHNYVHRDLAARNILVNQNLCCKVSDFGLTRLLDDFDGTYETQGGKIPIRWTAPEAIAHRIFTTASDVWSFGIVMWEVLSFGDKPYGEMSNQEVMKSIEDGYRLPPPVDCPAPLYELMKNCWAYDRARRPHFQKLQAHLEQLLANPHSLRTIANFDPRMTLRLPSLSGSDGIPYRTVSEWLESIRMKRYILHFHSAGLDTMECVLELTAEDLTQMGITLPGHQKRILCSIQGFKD
Method in brief: as §1

266 human kinases [5] = molecular target: 266 human kinases (Homo sapiens, UniProt Q9HBH9); conditions: Mnk2(h); 100 μM
266 human kinases (Homo sapiens, UniProt Q9HBH9), sequence (Q9HBH9 whole entry): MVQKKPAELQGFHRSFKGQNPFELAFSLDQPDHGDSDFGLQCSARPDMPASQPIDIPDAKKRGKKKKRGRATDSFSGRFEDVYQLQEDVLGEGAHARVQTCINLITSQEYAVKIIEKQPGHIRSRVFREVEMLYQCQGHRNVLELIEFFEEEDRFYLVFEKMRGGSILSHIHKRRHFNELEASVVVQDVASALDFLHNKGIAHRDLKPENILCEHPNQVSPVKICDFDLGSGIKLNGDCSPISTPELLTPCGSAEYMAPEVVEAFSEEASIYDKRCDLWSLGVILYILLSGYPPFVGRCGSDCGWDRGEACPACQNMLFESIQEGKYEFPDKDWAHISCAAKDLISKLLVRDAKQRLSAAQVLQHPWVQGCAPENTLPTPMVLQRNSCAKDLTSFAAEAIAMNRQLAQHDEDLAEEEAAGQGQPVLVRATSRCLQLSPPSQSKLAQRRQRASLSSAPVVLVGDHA
Method in brief: as §1

266 human kinases [6] = molecular target: 266 human kinases (Homo sapiens, UniProt Q9Y243); conditions: PKBγ(h); 100 μM
266 human kinases (Homo sapiens, UniProt Q9Y243), sequence (Q9Y243 whole entry): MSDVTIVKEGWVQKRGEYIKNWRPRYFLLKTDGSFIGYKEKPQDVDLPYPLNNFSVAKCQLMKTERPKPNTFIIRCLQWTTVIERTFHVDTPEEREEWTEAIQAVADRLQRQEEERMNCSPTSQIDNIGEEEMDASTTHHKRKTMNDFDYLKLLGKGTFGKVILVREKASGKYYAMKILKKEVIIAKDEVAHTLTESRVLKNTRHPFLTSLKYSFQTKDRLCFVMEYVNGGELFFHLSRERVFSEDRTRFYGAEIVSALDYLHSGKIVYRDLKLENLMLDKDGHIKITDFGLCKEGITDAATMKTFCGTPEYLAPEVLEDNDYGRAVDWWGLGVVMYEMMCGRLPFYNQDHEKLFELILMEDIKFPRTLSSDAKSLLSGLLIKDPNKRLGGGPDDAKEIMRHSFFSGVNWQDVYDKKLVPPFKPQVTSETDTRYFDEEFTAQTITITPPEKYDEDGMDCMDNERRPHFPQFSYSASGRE
Method in brief: as §1

266 human kinases [7] = molecular target: 266 human kinases (Homo sapiens, UniProt P10721, V654A); conditions: cKit(V654A)(h); 100 μM
Method in brief: as §1

266 human kinases [8] = molecular target: 266 human kinases (Homo sapiens, UniProt P24941); conditions: 100 μM
Method in brief: as §1

266 human kinases [9] = molecular target: 266 human kinases (Homo sapiens, UniProt Q15418); conditions: Rsk1(h); 100 μM
266 human kinases (Homo sapiens, UniProt Q15418), sequence (Q15418 whole entry): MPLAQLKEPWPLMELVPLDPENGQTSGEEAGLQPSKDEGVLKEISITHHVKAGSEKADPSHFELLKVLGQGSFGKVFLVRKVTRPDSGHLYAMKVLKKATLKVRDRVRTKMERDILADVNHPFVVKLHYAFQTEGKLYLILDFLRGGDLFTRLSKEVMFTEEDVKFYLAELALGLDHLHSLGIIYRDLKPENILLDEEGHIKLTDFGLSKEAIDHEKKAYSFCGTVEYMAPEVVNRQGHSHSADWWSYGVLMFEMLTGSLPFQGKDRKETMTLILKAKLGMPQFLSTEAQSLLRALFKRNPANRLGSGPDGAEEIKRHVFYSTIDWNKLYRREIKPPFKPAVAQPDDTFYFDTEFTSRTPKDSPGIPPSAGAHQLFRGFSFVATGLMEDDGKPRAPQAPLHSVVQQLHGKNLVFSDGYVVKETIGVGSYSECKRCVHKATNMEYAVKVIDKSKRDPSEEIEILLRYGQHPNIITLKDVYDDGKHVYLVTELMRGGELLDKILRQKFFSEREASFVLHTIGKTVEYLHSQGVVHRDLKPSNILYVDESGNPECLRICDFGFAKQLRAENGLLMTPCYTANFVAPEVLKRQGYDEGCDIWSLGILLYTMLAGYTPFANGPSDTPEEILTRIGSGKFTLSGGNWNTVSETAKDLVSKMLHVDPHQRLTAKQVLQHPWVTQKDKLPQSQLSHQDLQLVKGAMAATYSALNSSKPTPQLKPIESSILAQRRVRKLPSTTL
Method in brief: as §1

266 human kinases [10] = molecular target: 266 human kinases (Homo sapiens, UniProt P16234, D842V); conditions: PDGFRα(D842V)(h); 100 μM
266 human kinases (Homo sapiens, UniProt P16234, D842V), sequence (P16234 24-1089 D842V): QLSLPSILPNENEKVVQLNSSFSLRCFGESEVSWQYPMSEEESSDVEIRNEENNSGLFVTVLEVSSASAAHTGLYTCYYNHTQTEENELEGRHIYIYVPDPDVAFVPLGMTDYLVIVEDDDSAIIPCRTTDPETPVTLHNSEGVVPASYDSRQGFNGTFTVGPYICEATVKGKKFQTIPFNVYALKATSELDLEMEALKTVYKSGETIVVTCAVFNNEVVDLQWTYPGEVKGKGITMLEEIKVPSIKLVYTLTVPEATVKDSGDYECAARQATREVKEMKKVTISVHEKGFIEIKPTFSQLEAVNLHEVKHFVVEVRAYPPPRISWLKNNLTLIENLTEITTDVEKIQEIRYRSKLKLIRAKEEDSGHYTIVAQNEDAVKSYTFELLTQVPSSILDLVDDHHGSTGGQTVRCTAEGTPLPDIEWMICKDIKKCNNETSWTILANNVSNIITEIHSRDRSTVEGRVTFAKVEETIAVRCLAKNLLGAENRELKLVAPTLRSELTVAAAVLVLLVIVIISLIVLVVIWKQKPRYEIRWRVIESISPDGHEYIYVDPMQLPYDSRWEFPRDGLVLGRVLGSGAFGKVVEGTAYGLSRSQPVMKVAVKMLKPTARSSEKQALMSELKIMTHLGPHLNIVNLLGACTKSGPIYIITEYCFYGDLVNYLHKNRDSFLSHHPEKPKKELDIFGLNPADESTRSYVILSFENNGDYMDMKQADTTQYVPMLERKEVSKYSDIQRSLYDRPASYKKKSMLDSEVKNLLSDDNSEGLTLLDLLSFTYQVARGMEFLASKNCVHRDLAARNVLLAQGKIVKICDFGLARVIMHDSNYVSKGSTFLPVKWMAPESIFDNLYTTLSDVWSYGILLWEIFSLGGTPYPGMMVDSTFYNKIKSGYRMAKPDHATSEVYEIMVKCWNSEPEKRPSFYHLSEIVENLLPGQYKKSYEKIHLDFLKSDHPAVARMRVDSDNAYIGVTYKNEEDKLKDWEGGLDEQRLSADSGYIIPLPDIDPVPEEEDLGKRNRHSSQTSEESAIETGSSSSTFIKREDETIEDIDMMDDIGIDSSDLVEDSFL
Method in brief: as §1

266 human kinases [11] = molecular target: 266 human kinases (Homo sapiens, UniProt P06493); conditions: CDK1/cyclinB(h); 100 μM
266 human kinases (Homo sapiens, UniProt P06493), sequence (P06493 whole entry): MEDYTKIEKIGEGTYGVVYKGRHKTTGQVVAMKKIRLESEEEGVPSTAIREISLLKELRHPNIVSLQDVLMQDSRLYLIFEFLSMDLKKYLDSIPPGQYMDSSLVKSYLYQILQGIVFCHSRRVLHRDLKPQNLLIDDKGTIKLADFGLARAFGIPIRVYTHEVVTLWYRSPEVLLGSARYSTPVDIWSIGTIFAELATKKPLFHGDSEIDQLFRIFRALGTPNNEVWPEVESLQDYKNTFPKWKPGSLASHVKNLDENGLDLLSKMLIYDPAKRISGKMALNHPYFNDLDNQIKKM
Method in brief: as §1

266 human kinases [12] = molecular target: 266 human kinases (Homo sapiens, UniProt O75914); conditions: PAK3(h); 100 μM
266 human kinases (Homo sapiens, UniProt O75914), sequence (O75914 whole entry): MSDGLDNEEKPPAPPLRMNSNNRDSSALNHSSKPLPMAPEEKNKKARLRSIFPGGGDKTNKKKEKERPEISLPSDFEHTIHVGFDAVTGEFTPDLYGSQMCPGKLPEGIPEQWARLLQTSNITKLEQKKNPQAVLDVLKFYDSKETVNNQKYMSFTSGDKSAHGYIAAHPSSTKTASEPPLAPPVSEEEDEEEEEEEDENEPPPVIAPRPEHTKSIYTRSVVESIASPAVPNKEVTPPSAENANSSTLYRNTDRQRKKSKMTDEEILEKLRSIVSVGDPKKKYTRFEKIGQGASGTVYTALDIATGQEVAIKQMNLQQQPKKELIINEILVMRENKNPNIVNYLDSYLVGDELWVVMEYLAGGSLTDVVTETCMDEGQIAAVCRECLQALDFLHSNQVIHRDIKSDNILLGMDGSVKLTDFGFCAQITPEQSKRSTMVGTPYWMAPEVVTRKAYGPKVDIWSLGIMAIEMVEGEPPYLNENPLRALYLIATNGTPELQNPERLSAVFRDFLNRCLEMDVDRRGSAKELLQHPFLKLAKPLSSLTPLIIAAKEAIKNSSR
Method in brief: as §1

Sequence	% activity (266 human kinases [1]) [%]	% activity (266 human kinases [2]) [%]	% activity (266 human kinases [3]) [%]	% activity (266 human kinases [4]) [%]	% activity (266 human kinases [5]) [%]	% activity (266 human kinases [6]) [%]	% activity (266 human kinases [7]) [%]	% activity (266 human kinases [8]; CDK2/cyclinA(h)) [%]	% activity (266 human kinases [8]; CDK2/cyclinE(h)) [%]	% activity (266 human kinases [9]) [%]	% activity (266 human kinases [10]) [%]	% activity (266 human kinases [11]) [%]	% activity (266 human kinases [12]) [%]
HRRIKAWLKKIKALARQLGVAA (mammal) [MMI-0500]	198	50	194	40	6	20	223	87	19	34	170	57	–
YARAAARQARAKALNRQLGVA (mammal) [MMI-0200]	–	–	–	–	–	–	–	–	–	–	–	–	50
